Assay results as given in article PMC6872149, “Protein:Protein interactions in the cytoplasmic membrane apparently influencing sugar transport and phosphorylation activities of the e. coli phosphotransferase system” (PLoS ONE, 2019).

Target: MtlA (mannitol PTS Enzyme IIC-IIB-IIA) fused to the T25 domain (pKNT25-mtlA) (E. coli, UniProt P00550 1-637)
Experiment: cell-based or functional assay

Sequence of MtlA (mannitol PTS Enzyme IIC-IIB-IIA) fused to the T25 domain (pKNT25-mtlA) (P00550 whole entry, the tested form may be a part): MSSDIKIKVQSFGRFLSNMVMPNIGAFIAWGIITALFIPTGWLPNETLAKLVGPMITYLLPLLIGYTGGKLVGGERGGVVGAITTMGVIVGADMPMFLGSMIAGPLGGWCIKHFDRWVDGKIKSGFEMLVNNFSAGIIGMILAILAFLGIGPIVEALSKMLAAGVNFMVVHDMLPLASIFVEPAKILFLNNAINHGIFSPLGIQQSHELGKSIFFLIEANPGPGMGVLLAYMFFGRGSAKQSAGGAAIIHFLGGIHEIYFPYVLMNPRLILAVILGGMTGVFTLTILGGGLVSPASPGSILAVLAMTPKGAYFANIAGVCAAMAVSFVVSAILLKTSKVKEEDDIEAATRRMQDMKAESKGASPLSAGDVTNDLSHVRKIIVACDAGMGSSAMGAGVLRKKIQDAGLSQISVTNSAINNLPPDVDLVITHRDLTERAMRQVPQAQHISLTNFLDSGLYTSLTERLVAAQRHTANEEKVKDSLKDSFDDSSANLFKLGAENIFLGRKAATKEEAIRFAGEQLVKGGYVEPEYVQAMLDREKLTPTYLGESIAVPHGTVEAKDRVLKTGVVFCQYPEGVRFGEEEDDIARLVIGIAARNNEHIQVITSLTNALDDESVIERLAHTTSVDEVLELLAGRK

B1: FruB (fructose PTS IIA-FPr) fused to the T18 domain (pUT18-fruB) (natural protein, E. coli, UniProt P69811 1-376, looked up)
chain: MFQLSVQDIHPGEKAGDKEEAIRQVAAALVQAGNVAEGYVNGMLAREQQTSTFLGNGIAIPHGTTDTRDQVLKTGVQVFQFPEGVTWGDGQVAYVAIGIAASSDEHLGLLRQLTHVLSDDSVAEQLKSATTAEELRALLMGEKQSEQLKLDNEMLTLDIVASDLLTLQALNAARLKEAGAVDATFVTKAINEQPLNLGQGIWLSDSAEGNLRSAIAVSRAANAFDVDGETAAMLVSVAMNDDQPIAVLKRLADLLLDNKADRLLKADAATLLALLTSDDAPTDDVLSAEFVVRNEHGLHARPGTMLVNTIKQFNSDITVTNLDGTGKPANGRSLMKVVALGVKKGHRLRFTAQGADAEQALKAIGDAIAAGLGEGA
  PEP-dependent [14C]mannitol phosphorylation in vitro, activity ratio (Enzyme II plus FruB / Enzyme II alone); purified His-FruB 0.23 μM added to crude extract Cr.Ext-ΔfruBKA-pMAL (no FruA): 1.2 ratio
  PEP-dependent [14C]mannitol phosphorylation in vitro, activity ratio (Enzyme II plus FruB / Enzyme II alone); purified His-FruB 0.23 μM added to membrane pellets MP-WT-pMAL (no fruA overexpression): 1.5 ratio
  PEP-dependent [14C]mannitol phosphorylation in vitro, activity ratio (Enzyme II plus FruB / Enzyme II alone); purified His-FruB 0.23 μM added to membrane pellets MP-WT-pMAL-fruA (fruA overexpressed): 8.6 ratio
  PEP-dependent [14C]mannitol phosphorylation in vitro, activity ratio (Enzyme II plus FruB / Enzyme II alone); purified His-FruB 0.23 μM added to membrane pellets MP-ΔfruBKA-pMAL (no FruA): 1.2 ratio
